# B1: C1QTNF4 (aa 17–329, full-length) (ligand)
# chain: not shown
# B2: GFP-C1QTNF4 (aa 17–329) (ligand)
# chain: not shown
# Assays:
# [1] = target: T1, Nucleolin construct R1234G (aa 285–710) (human, UniProt P19338 285-710); test: co-IP
# [2] = target: T1, Nucleolin construct R1234G (aa 285–710); test: flow cytometry on cells
# T1 sequence (P19338 285-710, stated change not applied): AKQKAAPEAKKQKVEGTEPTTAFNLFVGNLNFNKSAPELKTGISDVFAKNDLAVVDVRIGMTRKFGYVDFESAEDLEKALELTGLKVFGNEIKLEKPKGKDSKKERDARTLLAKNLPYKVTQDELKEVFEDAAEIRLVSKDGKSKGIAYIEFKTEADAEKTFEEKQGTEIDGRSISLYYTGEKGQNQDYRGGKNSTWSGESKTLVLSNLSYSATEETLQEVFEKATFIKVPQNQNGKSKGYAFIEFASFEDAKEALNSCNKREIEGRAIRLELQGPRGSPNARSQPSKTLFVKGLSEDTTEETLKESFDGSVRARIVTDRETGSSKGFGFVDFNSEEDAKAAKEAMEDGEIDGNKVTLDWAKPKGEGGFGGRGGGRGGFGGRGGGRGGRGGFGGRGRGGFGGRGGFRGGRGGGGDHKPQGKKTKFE
Binder,binding result [1],binding result [2]
B1,binds,–
B2,–,binds

# Reference: article PMC8042453 (The Journal of Biological Chemistry, 2021)
